Article PMC4344348, “Quantitative Analysis of Ligand-EGFR Interactions: A Platform for Screening Targeting Molecules” (PLoS ONE, 2015)

Molecular target: T1, Epidermal growth factor receptor (UniProt P00533 25-645)
T1 construct: Epidermal growth factor receptor (EGFR), bought from Sigma-Aldrich; Coupled by its amines to the dextran of a CM5 chip (about 12,000 RU) for both SPR and AFM; also called EGFR; source: bought: Sigma-Aldrich
Assay: SPR; Biacore X; EGFR amine-coupled to a CM5 chip, ligands flowed over; room temperature; running buffer PBS; flow 10 ul/min; regeneration 50 mM NaOH; channel without EGFR as control; EGF 0.25-4 uM, GE11 10-160 uM; KD from BIAEvaluation software
Settings: both partners purified

Kd: 459 µM
B1: Peptide GE11 (peptide)
peptide: YHWYGYTPQNVI
notes: In solution for SPR; for AFM coupled to succinimide-modified silicon nitride tips; source: synthetic peptide, custom synthesized by Millipore
